Molecular target: the molecule itself
Test: SEC-MALS

B1: canavalin (natural protein, Canavalia ensiformis (jack bean), UniProt P50477 27-445, looked up)
chain: HSGHSGGEAEDESEESRAQNNPYLFRSNKFLTLFKNQHGSLRLLQRFNEDTEKLENLRDYRVLEYCSKPNTLLLPHHSDSDLLVLVLEGQAILVLVNPDGRDTYKLDQGDAIKIQAGTPFYLINPDNNQNLRILKFAITFRRPGTVEDFFLSSTKRLPSYLSAFSKNFLEASYDSPYDEIEQTLLQEEQEGVIVKMPKDQIQEISKHAQSSSRKTLSSQDKPFNLRSRDPIYSNNYGKLYEITPEKNSQLRDLDILLNCLQMNEGALFVPHYNSRATVILVANEGRAEVELVGLEQQQQQGLESMQLRRYAATLSEGDIIVIPSSFPVALKAASDLNMVGIGVNAENNERNFLAGHKENVIRQIPRQVSDLTFPGSGEEVEELLENQKESYFVDGQPRHIDAGGKARRAHLPNLFRTFY
B1 was tested. Which “stoichiometry N” value did it give?
The value was 3.
